This is an account of results in US20200339648A1 (University of Washington, published 2020).

A word on the Kd: it is the concentration at which binding is half-saturated. Low readings indicate higher affinity, high ones lower affinity.

Assay [1] deals with T1, mouse IL-2Rβγc on murine cells (CTLL-2 T cells, primary CD4+ T cells) (mouse, UniProt P16297 27-539; P34902 23-369).
T1 sequence (looked up) 1: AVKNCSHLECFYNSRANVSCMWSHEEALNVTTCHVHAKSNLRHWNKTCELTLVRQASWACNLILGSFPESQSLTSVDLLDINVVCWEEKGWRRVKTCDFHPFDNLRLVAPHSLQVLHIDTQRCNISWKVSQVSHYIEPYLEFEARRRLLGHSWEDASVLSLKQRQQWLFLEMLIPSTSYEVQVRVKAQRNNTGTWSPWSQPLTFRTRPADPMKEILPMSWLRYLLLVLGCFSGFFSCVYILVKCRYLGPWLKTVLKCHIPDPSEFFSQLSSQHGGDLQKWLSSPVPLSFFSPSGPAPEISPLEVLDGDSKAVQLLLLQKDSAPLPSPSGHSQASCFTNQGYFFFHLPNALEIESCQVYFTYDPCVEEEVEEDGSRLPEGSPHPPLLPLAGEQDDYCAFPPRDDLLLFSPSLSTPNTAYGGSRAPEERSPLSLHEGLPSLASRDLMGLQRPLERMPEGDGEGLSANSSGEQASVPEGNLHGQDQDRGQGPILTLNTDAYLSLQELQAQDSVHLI
T1 sequence (looked up) 2: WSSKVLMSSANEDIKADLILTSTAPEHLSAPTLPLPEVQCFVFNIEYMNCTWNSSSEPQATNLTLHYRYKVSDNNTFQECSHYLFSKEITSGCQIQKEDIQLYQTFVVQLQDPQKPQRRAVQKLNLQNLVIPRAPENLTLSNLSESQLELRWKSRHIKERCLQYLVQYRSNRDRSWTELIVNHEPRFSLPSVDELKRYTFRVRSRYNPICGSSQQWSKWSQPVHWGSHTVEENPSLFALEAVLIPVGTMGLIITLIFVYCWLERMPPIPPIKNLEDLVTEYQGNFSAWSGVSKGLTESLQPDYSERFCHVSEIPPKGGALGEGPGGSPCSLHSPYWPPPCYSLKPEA
As to the kind of experiment: cell-based or functional assay.

For assay [2], the target named is T1, mouse IL-2Rβγc on murine cells (CTLL-2 …). As to the kind of experiment: cell-based or functional assay. This is another data set of the same source.
For assay [3], the target named is T2, mouse IL-2 receptor α subunit (mIL-2Rα) (mouse, UniProt P01590 22-236, biotin on the C-terminal biotin acceptor peptide).
T2 construct: extracellular domain; Biotinylated and immobilised on streptavidin; also called murine IL-2Rα
T2 sequence: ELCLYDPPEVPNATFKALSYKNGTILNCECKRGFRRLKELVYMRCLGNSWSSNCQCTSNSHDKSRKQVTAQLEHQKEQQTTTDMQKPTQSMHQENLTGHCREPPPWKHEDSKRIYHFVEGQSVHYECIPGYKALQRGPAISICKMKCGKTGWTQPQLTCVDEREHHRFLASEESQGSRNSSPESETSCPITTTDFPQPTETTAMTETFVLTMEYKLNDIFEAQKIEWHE
As to the kind of experiment: SPR, biotinylated receptor on streptavidin chip. On the procedure: (§1) Less than 100 response units (RU) of each ligand was immobilized to minimize mass transfer effects. […] Surface regeneration for all interactions was conducted using 15 s exposure to 1 M MgCl2 in 10 mM sodium acetate pH 5.5. SPR experiments were carried out in HBS-P+ buffer (GE Healthcare) supplemented with 0.2% bovine serum albumin (BSA) at 25° C. and all binding studies were performed at a flow rate of […] to prevent analyte rebinding. Data was visualized and processed using the Biacore T100 evaluation software version 2.0 (GE Healthcare). Equilibrium titration curve fitting and equilibrium binding dissociation (KD) value determination was implemented using GraphPad Prism assuming all binding interactions to be first order. Biolayer interferometry: binding data were collected in a Octet RED96 (ForteBio, Menlo Park, Calif.) and processed using the instrument's integrated software using a 1:1 binding model. […] Analyte proteins were diluted from concentrated stocks into binding buffer. After baseline measurement in binding buffer alone, the binding kinetics were monitored by dipping the biosensors in wells containing 100 nM of the designed protein (association) and then dipping the sensors back into baseline wells (dissociation).
In general terms: SPR reads the build-up and loss of mass on a sensor chip optically.

Assay [4] addresses T3, human IL-2 receptor α subunit (hIL-2Rα) (human, UniProt P01589 22-238, biotin on the C-terminal biotin acceptor peptide).
T3 construct: range 1-217; Biotinylated and immobilised on streptavidin; also called human IL-2Rα; CD25
T3 sequence: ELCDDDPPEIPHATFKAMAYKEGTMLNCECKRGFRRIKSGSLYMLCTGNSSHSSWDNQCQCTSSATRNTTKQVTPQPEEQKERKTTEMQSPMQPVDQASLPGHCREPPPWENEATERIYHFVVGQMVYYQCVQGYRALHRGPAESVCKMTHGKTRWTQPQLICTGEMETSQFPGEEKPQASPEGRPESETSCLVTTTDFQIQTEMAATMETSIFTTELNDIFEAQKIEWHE
As to the kind of experiment: SPR, biotinylated receptor on streptavidin chip. As for the experimental part:
as §1

The target of assay [5] is T4, mouse IL-2 receptor β subunit (mIL-2Rβ) (mouse, UniProt P16297 27-240, biotin on the C-terminal biotin acceptor peptide).
T4 construct: extracellular domain; Biotinylated form for SPR; also called MmIL-2Rβ; murine IL-2Rβ
T4 sequence: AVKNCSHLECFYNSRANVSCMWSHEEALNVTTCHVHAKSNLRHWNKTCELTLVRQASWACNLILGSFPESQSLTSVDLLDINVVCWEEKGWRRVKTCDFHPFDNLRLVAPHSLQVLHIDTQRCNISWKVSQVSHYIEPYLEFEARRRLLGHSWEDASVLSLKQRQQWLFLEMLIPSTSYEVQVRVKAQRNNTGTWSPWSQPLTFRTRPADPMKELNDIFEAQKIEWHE
As to the kind of experiment: SPR, equilibrium titration; biotinylated IL-2Rβ on streptavidin chip.

The target of assay [6] is T5, mouse IL-2 receptor βγc heterodimer (mIL-2Rβγc), soluble (mouse, UniProt P16297 27-240; P34902 23-263, biotin on the C-terminal biotin acceptor peptide).
T5 construct: extracellular domain; also called MmIL-2Rβγc; mIL-2Rβνc
T5 sequence 1: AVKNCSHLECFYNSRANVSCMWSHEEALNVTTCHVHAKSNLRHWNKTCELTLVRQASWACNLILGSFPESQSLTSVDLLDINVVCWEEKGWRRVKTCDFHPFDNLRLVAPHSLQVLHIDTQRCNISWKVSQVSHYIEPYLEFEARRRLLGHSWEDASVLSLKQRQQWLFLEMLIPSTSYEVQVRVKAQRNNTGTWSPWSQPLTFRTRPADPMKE
T5 sequence 2: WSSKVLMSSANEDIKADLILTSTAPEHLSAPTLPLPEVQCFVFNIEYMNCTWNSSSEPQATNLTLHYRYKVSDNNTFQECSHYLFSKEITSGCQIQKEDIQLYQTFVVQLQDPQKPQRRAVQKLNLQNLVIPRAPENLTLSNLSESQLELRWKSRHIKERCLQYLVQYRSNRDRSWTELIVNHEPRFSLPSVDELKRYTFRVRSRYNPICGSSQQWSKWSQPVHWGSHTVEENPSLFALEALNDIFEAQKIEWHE
As to the kind of experiment: SPR, equilibrium titration; IL-2Rγ on streptavidin chip, saturating IL-2Rβ in solution.

B1: Neoleukin-2/15 (designed binder)
chain: PKKKIQLHAEHALYDALMILNIVKTNSPPAEEKLEDYAFNFELILEEIARLFESGDQKDEAEKAKRMKEWMKRIKTTASEDEQEEMANAIITILQSWIFS
notes: 100 residues; also called Neo-2/15; Neolukin-2/15
As for B1, the “EC50 (CD25+) pSTAT5, murine T (CTLL-2, CD25+) cells” value in assay [1] came to 70 pM. In addition, the “EC50 of pSTAT5 signaling, murine CD4+ primary cells ex vivo, CD25+” value in assay [2] is about 24 pM. Besides, the “EC50 of pSTAT5 signaling, murine CD4+ primary cells ex vivo, CD25-” value in assay [2] is about 129 pM. The binding result in assay [3] and in assay [4] was “no binding” throughout. Besides, the Kd in assay [5] was 16.1 nM; in assay [6], 38.4 nM.
